A short description of this series: soluble on expression in E. coli; label from the status in PepcDB or PDB records.
As to “MFKVDRYFDLTAPIYPYMPVWPSNPPVELKPIVTVPKDGYLAEIIEASTHTGTHIDAPAHMIEGGTTVDDLDLASLIGTGYCLKVLPDGHTIRSTHLAEKWQGIYNNSILLIETGWYKKRGYTREFQYDFPGLSEDAADFLIQKHVKAVGIDTLGIEPYENTDFRVHKKLLRSGIPIIEDLYGLDSLEEGRPYLIIALPLRLKGTSGSMARVVAAETELEHHHHHH”, the “soluble on expression in E. coli” value is “not soluble”. The entry for “MFNGDDDFPMGAMHSFGQMHQQMMSDMNMMTGGMLRNMGMGGPMFGGLMVPSPFGAITDGSGQQPSRRRQELEMNPFAPFGGLLGGLGGMGMMMPPPGQGANMYMSSSVMTIGPDGKPRVEQQTVRRHGDVTETKRRVDKNGESSMSIGHSIGDRSHFIDKKRDREGNVRKQQRFQNLDEASAEAFDREFSSRVRQGYGSGSRSSNLREIDNGLSSSRRSPFGGAGASSSSRRMESRGASRGAPIVTLPEEEETAHSRSSTSHRVGGPLIREISEEEAEQAASSIPKRRRGQQ” is “not soluble”; for “MFNLQKRINGNNEDGRYLETRIAVRDKLLAQELQQLETALRDQKQKLWHLEVPSTSCLHELELTVTPQEGIYRGGKFRFKITVPPEYNNVPPVVKCLTKVWHPNINEDGSICLSILRQNSLDQYGWRPTRNLTDVVHGLVSLFNDLMDFNDALNIQAAQMWSQNRESFNHRVREYISRYC” it is “soluble”; for “MFNNILVVCVGNICRSPTAERLLQRYHPELKVESAGLGALVGKGADPTAISVAAEHQLSLEGHCARQISRRLCRNYDLILTMEKRHIERLCEMAPEMRGKVMLFGHWDNECEIPDPYRKSRETFAAVYTLLERSARQWAQALNAEQV” it is “not soluble”. The result for “MFQIGEALMGQGSELAHVDLMIGDKGGPVGQAFANGLTQLSAGHTPLLSVIRPNLPPKPSTLIIPKVTVKNMDQAARIFGPAQSAVAKAVADSVEEGVIPKDQVEDLVIVASVFIHPEAQDYNKIYRYNYGATKLAIKRALEGFPDIDTVLEESNKSTHAIMGFKVTRLWDPPYLQIAFDNPNLEFVLSAISEIPKSDHVIIEAGTPLIKRYGTDVISKIRQVRPDAFIVADLKTLDTGNLEARMVADAAGDAIVVSALAPISTIDKLIEEAHKTGIYAVMDTLNQQDPISVLKQLKVMPDVIELHRGIDIEGTEHAWGNIGEIKKIAPKALVAVAGGVRLDKVPVALSQGADILVVGRAITNAKDVREMAEQFINSLNKPEIDQFRVMTDF” reads “not soluble”. The result for “MFQNHKIMDLEVRTRLDDNRNLREVRIIPLGSGYNVGIVYSKEISDISDLNPKRILGIDMGVRNIVTIGNNMSEEGIAVKGGVLRSINQYFNKELSKLKSVSDRQNDGKGNTRRIKNLYAVRNGKIKDIMHKLSRAIIRYALSMNVDTIVIGHSQGWKHTPDMGKKNNQNFVQIPFNILIEQIRYKGQEAGINVIVLDESYTSVCSFIDNESIEKHETYMGKRIKRGIFRSHKGILIHADLNALYNTIKKAISEAFADGIEGIGLYPRSLSIREMITSKGLRLEHHHHHH” reads “soluble”; that for “MFRIGQGFDVHQLVEGRPLIIGGIEIPYEKGLLGHSDADVLLHTVADACLGAVGEGDIGKHFPDTDPEFKDADSFKLLQHVWGIVKQKGYVLGNIDCTIIAQKPKMLPYIEDMRKRIAEGLEADVSQVNVKATTTEKLGFTGRAEGIAAQATVLIQKG”, “not soluble”; that for “MFRISQLLKTLHDDMAELKPVKASRKMKGPVVIWNLIRRCNLQCKHCYSTSLDIDFKDELSTEQVKTTIDDLKVAHVPVLILSGGEPLLRPDIYEITEYAKQKGFYLALSTNGTLINEDNIEAIKAAEYQYVGISIDGLEEFHDEFRRQKGSFKTSMHAIKLCKDAGIKVGMRLCLTRENFKDLPAMLNLMEENSVDKFYLSHLNYSGRGKRTAENDAMFKMTKDAMELLYERAWTHINQGIETDFVTGNNDADGPFLLQWASKQFAEEYPEAIANLKQRLINWGGNSSGINVANIDNTGTIHPDTYWWNHPIGNVTTEKFSDVWRDTQDPLMLGFRQTPRPVKGRCASCEHLAICGGNTRTRAFAQSGDAWAEDPGCYLDDDEIGFIPSPSKFADELTNTENPIQFVEV”, “not soluble”.

For “MFRLLVPTYYSYSVPLRFPFCKIYRYSTSNKMVAIKDITARQILDSRGNPTVEVDLLTDGGCFRAAVPSGASTGIYEALELRDKDQTKFMGKGVMKAVENIHKIIKPALIGKDPCDQKGIDKLMVEELDGTKNEWGWCKSKLGANAILAVSMACCRAGAAAKGMPLYKYIATLAGNPTDKMVMPVPFFNVINGGSHAGNKVAMQEFMIAPVGASTIQEAIQIGAEVYQHLKVVIKKKYGLDATNVGDEGGFAPNISGATEALDLLMEAIKVSGHEGKVKIAADVAASEFFLQDDKVYDLDFKTPNNDKSQRKTGEELRNLYKDLCQKYPFVSIEDPFDQDDFHSYAQLTNEVGEKVQIVGDDLLVTNPTRIEKAVQEKACNGLLLKVNQIGTVSESIEACQLAQKNKWGVMVSHRSGETEDSFIADLVVGLRTGQIKTGAPCRSERLCKYNQLMRIEESLGSDCQYAGAGFRHPN”, the “soluble on expression in E. coli” value is recorded as “soluble”. The result for “MFRNVAELVALAEKDSIKIAEVMIRQEVEVSGRSREEVIAQMDHHLSVMERAVERGLEGVVSRSGLTGGDAVRMQRYIEGGRFLSGETILDAVSKAMATNEVNAAMGVICATPTAGAAGVVPGTLFAVKEKLRPTRMEMIEFLFTAGAFGYVVANNASISGAAGGCQAEVGSAAGMAAAALVELAGGTPGQAAEAMAIALKNMLGLVCDPVAGLVEVPCVKRNAMGAANAMIAADMALAGIKSRIPCDEVIEAMYRIGAAMPVALKETAQGGLAATPTGRAIAARIFGASAASK” reads “not soluble”. For the sequence “MFSAKKLSPADKLKNISSMLEEIVEDTTVPRNIRAAADNAKNALHNEEQELIVRSATAIQYLDDISEDPNMPIHTRTQIWGIVSELETIKN”, the “soluble on expression in E. coli” value is “not soluble”. The result for “MFSPLRRLTTTGLQLQKLQKLQKLQQFQPARAVHLTVFQQKGHSKWQNIKAVKGKNDLIRSKATNFLLRKVRGAVSRGGFDMKLNRELADLESEFRAQGLPLDTLKNFLQKMKDKPEVEYSFDIIGPSGIFLIVTAETSNKKAFENDLRKYFNKLGGFRLAADGGVRSWFEEKGVVHVDTKKGGKILNIEEMEEIGLEFDAEEVLLIEEDSTKKFELICDAKSLQTLENGLGKGGFSILQSEIEFRPVHPIDCPEAEEPKVQKLYEMLQEDEQVRQIFDNITPDE” reads “not soluble”; that for “MFSWQEFTERDVSLFTENVIRSLINTKYNVICHIEDYTPPQFDSFLQLSACYNIGEKTEDEVINSDGIRWSKKKDSLGSEMKPRKNTISVDGRTFRRINCSSPPPATNLFKKYMAIEEATKLCWILFLGSSHDVIDYTSLKVARKKLSKEEALMIRKMLEGRTVLMVYQMLGGKYSKRQIKDQQRNVLTTVKLNRGPRPVTNPADLCDLSRMFSHAYHSSHRNSIRFIYFNKSMLGLFLKSCPTYTEITTYRNRMDGIENWRTADLNKHLADCKVYTCGGIDTRVASIIELDTTFGLSNGYISVTTGFIPVFRTRQHTKSSPSKLRHVVLGFMFHSSKHKSHFEDFSGRLNEILQELDPKKIKKIQL”, “not soluble”; that for “MFTGIVQGTAPIHSIKEKANFRTQVVKLLPEMRKDLEIGASIANNGVCLTVTEINGDLVSFDLMQETLKITNLGTVKVGDYVNIERAMQMGTEIGGHLLSGHIYCTAKISDIIASENNRQIWFELPSADVMKYILTKGFVAVDGISLTIGEVRDTQFCVNLIPETLQRTLMGRRKVGDIVNIEIDPQTQAIVDTVENYLQSKNFLEHHHHHH”, “soluble”.

Consider “MFTKSHLALVIGAVLAAPAVANVQTDEHLVVEGREFGYKADTNSTAMRMEMTQLETPGQVAVIDETVIDEQRASTLGEVLRNDASVSAGGTSRNRERFSLRGFELSSSDGFLRDGRQHWSHYRQPIEL”, for which the “soluble on expression in E. coli” value is given as “not soluble”. As for “MFTQQRLRPNTQELLKETNHLCEAFAISESILARYQRNNRQLSESEKKAFASLLLRVPHDFLTETVASLGTSKTSSIGPTTDLGSLIDNVFGFGKPLKDVFQLLNQELGNCLNSPRCRVYYLDPTDNLLKDPVYATASTLDETTPLGKAVLTGIQREIAGTLYLPLSFEGKVIACVESAWGSPEKGDKRRIKETLQFVACAMHNAIESERLRWNKEKAEAMLEMATQLARDNLDEAVLANSIMNTAKVLTESDRCSIFLVKDDTLEAHFEDGNIVAIPIATGIAGYVAQTGQTVKISDAYSDDRFNREVDKATGYRTKTILCMPVTYEGSIVAVAQLINKLDMVTESGLRLPRTFGKRDEELFQTFSMFAGASLRNCRINEKLINEKRKSDAILDVVTLLSNTDIRDVDGIVRHVLHGAKRLLYADRSALFLVDKERNELYSRIADSVAGKEIRFPCGQGIAGIVASTGIGENILDAYQDPRFNREVDKQLGYRTQTLLCEPIVLNGEILAVVQLVNKLNEAGEVTVFTESDRETFRVFSLFAGISINNSHLLEFAVKAGREMMELNENRALAGGRTGSLRNIKRPLAITEAERQAVRDINLAHLDITSIDFDLFYLRENMELPLDAAAAVAYRLIVGTGLPQKFRCRDDTLLNFILQCRKKYRNVPYHNFYHVVDVCQTVYTFLYKGAVCEKLTELDCFVLLVTALVHDLDHMGLNNSFYLKTDSPLGILSSASGNASVLEVHHCNLAVEILSDPDSDVFEGLDAADRTLAYRSMIDCVLATDMAKHGKSLESFLSVLGNPETSEQRIAELTMQIVLKAGDVSNVTKPFDISRLWAMAVTEEFYRQGDMEKEKGVEVLPMFDRSKNTELAKGQIGFIDFVAGPFFKKIVSASLTGMQWTVERVESNRLEWQRSLDAK”, the “soluble on expression in E. coli” value is “not soluble”. The result for “MFVFGAYWFDCGERAVLPANSRGALRPQCTRLRFWRGRYWHRGAVSALRRVRPLSASTPSPRVLDGSQSLADTPDNVQQLLQHMSQELDSVVQSMVHLEEYALEQVEKLKGAMEADLRKLALYEEEQAFAQKLTEQLQKKEGAVFEAMRHFLFHVVGLQEQTVAITNELQVLHEFVSENHERVELVLESLRERGLFGSRQDVFEGEVKKKLDRFDPEI” reads “not soluble”; that for “MFVRLFYTLRKYGVPVTTRELIDLNRAVAEGLVFADQDEFYQLAKTILVKDERFFDKFDRAIKDYFEGIETFDLDELLKQVQKIPKEWLDLELLEKHLTPEQREALQKAGSLEELMKMLEERLREQHKKHQGGNRMIGTGGTSPFGAFGDHPEGVRIGGPGRKRSAVKVWEQRKYQNLDDDQILGTRQMQLALRRLRKFARQGAADELDVDNTIRETAKQGILNVQMVPERRNRIKVLMLFDVGGSMDSHIAQCEKLFSAAKTEFKTLEYFYFHNCLYDYVWKDNHRRQASRLETWDLFHKYGRDYRVIVVGDASMAPYELRSAGGSVEYMNDEAGEIWLRRLRQHFDKTAWLNPEEEGYWKYTQTIGLIQQLFENHMYPMSLKGIEDMTRYLS”, “not soluble”.

Take “MFYCRSGFEKECAGEIQDKATQLEVFGFPRLKNNTGYVLFECYQEGDADRLIREIKFNELIFARQMFAVAAEVSDLPKDDRISPILDALSDVDGVPCCGDIRIETPDTNEAKELLKFCRKFTVPMRQALRGKKMLTERDSNRIPVLHICFIAPGHCYVGYSYTNNNSQFFMGIPRLKFPADAPSRSTLKLEEAFHVFIPKEEWDDRLASGMWGVDLGACPGGWTYQLVKRSMFVHAIDNGMMAQSLMDTGQVKHHMVDGFKFEPPRKNVTWLICDMVEKPARVAHLMGEWLIKGWAKEALFNLKLPMKGRYDEVLQDIENLKDFLKKNGFQYKLQAKHLYHDREEITVHIQAISNISPH”: the “soluble on expression in E. coli” value is given as “not soluble”.
